Earlier results as cited in publication PMC1617126.

Biological target: protective antigen (PA) (Bacillus anthracis) (UniProt P13423)

In the case of ANTXR2 I domain (from UniProt P58335), the Kd is listed as 960 nM.
